Data taken from publication PMC12302554.

Assays:
[1] = system: BCMA-CD19-His fusion protein (bispecific BC19 CAR ectodomain: anti-BCMA scFv + humanized anti-CD19 scFv + hinge); test: SPR; conditions: multi-cycle kinetics, 1:1 fit, 7.8-125 nM aptamer; SPR: Biacore 1K, CM5 chip, protein coupled at 20 ug/mL in sodium acetate pH 5.0 (running buffer not given); cell binding: D-PBS, 4.5 g/L glucose, 5 mM MgCl2, 0.
[2] = system: BC19 CAR on CAR-T cells (anti-BCMA scFv, humanized anti-CD19 scFv, hinge); test: flow cytometry; conditions: SPR: Biacore 1K, CM5 chip, protein coupled at 20 ug/mL in sodium acetate pH 5.0 (running buffer not given); cell binding: D-PBS, 4.5 g/L glucose, 5 mM MgCl2, 0.

TTCAGCACTCCACGCATAGCACGCTGCCGTGTGCTGCATGTGGTCGTGTGTCCGTGCCTATGCGTGCTACCGTGAA [Aptamer A3]
Kd [1]: 37 nM

TTCAGCACTCCACGCATAGCACGCTGCCGTGTGCTGCATGTGGTCGTGTGTCCGTGCCTATGCGTGCTACCGTGAA [FAM-Aptamer A3]
Kd [2]: 17 nM
